Measured values: IntAct's records for PubMed 21074049

B1: ERAD-associated E3 ubiquitin-protein ligase HRD1 (Saccharomyces cerevisiae), Q08109 (parent)
chain: MVPENRRKQLAIFVVVTYLLTFYCVYSATKTSVSFLQVTLKLNEGFNLMVLSIFILLNSTLLWQLLTKLLFGELRLIEHEHIFERLPFTIINTLFMSSLFHERYFFTVAFFGLLLLYLKVFHWILKDRLEALLQSINDSTTMKTLIFSRFSFNLVLLAVVDYQIITRCISSIYTNQKSDIESTSLYLIQVMEFTMLLIDLLNLFLQTCLNFWEFYRSQQSLSNENNHIVHGDPTDENTVESDQSQPVLNDDDDDDDDDRQFTGLEGKFMYEKAIDVFTRFLKTALHLSMLIPFRMPMMLLKDVVWDILALYQSGTSLWKIWRNNKQLDDTLVTVTVEQLQNSANDDNICIICMDELIHSPNQQTWKNKNKKPKRLPCGHILHLSCLKNWMERSQTCPICRLPVFDEKGNVVQTTFTSNSDITTQTTVTDSTGIATDQQGFANEVDLLPTRTTSPDIRIVPTQNIDTLAMRTRSTSTPSPTWYTFPLHKTGDNSVGSSRSAYEFLITNSDEKENGIPVKLTIENHEVNSLHGDGGEQIAKKIVIPDKFIQHI
partner: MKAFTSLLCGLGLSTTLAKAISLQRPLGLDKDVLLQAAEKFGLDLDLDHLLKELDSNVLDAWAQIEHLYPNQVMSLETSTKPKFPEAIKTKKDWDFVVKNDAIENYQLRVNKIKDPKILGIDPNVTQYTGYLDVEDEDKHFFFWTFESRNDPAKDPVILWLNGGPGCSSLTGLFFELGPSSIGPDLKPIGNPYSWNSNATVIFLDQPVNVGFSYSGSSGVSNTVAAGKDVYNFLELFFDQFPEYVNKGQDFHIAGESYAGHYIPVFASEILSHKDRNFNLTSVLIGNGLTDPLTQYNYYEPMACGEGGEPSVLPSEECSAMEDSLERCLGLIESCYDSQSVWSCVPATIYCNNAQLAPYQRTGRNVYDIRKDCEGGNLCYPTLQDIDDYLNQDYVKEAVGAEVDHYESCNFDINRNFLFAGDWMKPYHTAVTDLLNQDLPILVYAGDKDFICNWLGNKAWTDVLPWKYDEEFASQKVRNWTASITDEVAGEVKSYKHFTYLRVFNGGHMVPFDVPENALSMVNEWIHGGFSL

Variants of: B1
Conditions: with cbpy_yeast PRC1, P00729

Variant	effect of a mutation on the interaction
MVPENRRKQLAIFVVVTYLLTFYCVYSATKTSVSFLQVTLKLNEGFNLMVLSIFILLNSTLLWQLLTKLLFGELRLIEHEHIFERLPFTIINTLFMSSLFHERYFFTVAFFGLLLLYLKVFHWILKDRLEALLQSINDSTTMKTLIFSRFSFNLVLLAVVDYQIITRCISSIYTNQKSDIESTSLYLIQVMEFTMLLIDLLNLFLQTCLNFWEFYRSQQSLSNENNHIVHGDPTDENTVESDQSQPVLNDDDDDDDDDRQFTGLEGKFMYEKAIDVFTRFLKTALHLSMLIPFRMPMMLLKDVVWDILALYQSGTSLWKIWRNNKQLDDTLVTVTVEQLQNSANDDNICIICMDELIHSPNQQTWKNKNKKPKRLPCGHILHLSCLKNWMERSQTCPISRLPVFDEKGNVVQTTFTSNSDITTQTTVTDSTGIATDQQGFANEVDLLPTRTTSPDIRIVPTQNIDTLAMRTRSTSTPSPTWYTFPLHKTGDNSVGSSRSAYEFLITNSDEKENGIPVKLTIENHEVNSLHGDGGEQIAKKIVIPDKFIQHI [C399S]	decreasing interaction
